Reference: doi:10.1101/2024.01.09.574565, “Human coronavirus HKU1 recognition of the TMPRSS2 host receptor” (bioRxiv, 2024)

target: human TMPRSS2 ectodomain, active (S441), with the C379-T447C disulfide bond (human, UniProt O15393 106-492, T447C); assay: enzyme inhibition kinetics (fluorogenic peptide substrate); 5 nM TMPRSS2 with serial dilutions of Boc-QAR-AMC in the presence of 215, 72 or 24 nM HKU1 RBD, 2 min preincubation, 22 °C; fit of competitive inhibition; details: both partners purified

Molecule	Ki [nM]
HKU1 isolate N1 (genotype A) RBD, wildtype, without avi tag (domain or fragment, also called HKU1 RBD; HKU1 RBD (without avi tag); not shown: His8, C-terminal, kept) RIPDLPDCDIDKWLNNFNVPSPLNWERKIFSNCNFNLSTLLRLVHTDSFSCNNFDESKIYGSCFKSIVLDKFAIPNSRRSDLQLGSSGFLQSSNYKIDTTSSSCQLYYSLPAINVTINNYNPSSWNRRYGFNNFNLSSHSVVYSRYCFSVNNTFCPCAKPSFASSCKSHKPPSASCPIGTNYRSCESTTVLDHTDWCRCSCLPDPITAYDPRSCSQKKSLVGVGEHCAGFGVDEEKCGVLDGSYNVSCLCSTDAFLGWSYDTCVSNNRCNIFSNFILNGINSGTTCSNDLLQPNT	38 ± 5

target: not given; assay: not given; details: glycan lost

Molecule	other: neutralisation sensitivity, other: geometric mean ID50 dilution
HKU1 spike (S) glycoprotein: S357A (protein) parent chain: MLLIIFILPTTLAVIGDFNCTNFAINDLNTTVPRISEYVVDVSYGLGTYYILDRVYLNTTILFTGYFPKSGANFRDLSLKGTTYLSTLWYQKPFLSDFNNGIFSRVKNTKLYVNKTLYSEFSTIVIGSVFINNSYTIVVQPHNGVLEITACQYTMCEYPHTICKSKGSSRNESWHFDKSEPLCLFKKNFTYNVSTDWLYFHFYQERGTFYAYYADSGMPTTFLFSLYLGTLLSHYYVLPLTCNAISSNTDNETLQYWVTPLSKRQYLLKFDNRGVITNAVDCSSSFFSEIQCKTKSLLPNTGVYDLSGFTVKPVATVHRRIPDLPDCDIDKWLNNFNVPSPLNWERKIFSNCNFNLSTLLRLVHTDSFSCNNFDESKIYGSCFKSIVLDKFAIPNSRRSDLQLGSSGFLQSSNYKIDTTSSSCQLYYSLPAINVTINNYNPSSWNRRYGFNNFNLSSHSVVYSRYCFSVNNTFCPCAKPSFASSCKSHKPPSASCPIGTNYRSCESTTVLDHTDWCRCSCLPDPITAYDPRSCSQKKSLVGVGEHCAGFGVDEEKCGVLDGSYNVSCLCSTDAFLGWSYDTCVSNNRCNIFSNFILNGINSGTTCSNDLLQPNTEVFTDVCVDYDLYGITGQGIFKEVSAVYYNSWQNLLYDSNGNIIGFKDFVTNKTYNIFPCYAGRVSAAFHQNASSLALLYRNLKCSYVLNNISLTTQPYFDSYLGCVFNADNLTDYSVSSCALRMGSGFCVDYNSPSSSSSRRKRRSISASYRFVTFEPFNVSFVNDSIESVGGLYEIKIPTNFTIVGQEEFIQTNSPKVTIDCSLFVCSNYAACHDLLSEYGTFCDNINSILDEVNGLLDTTQLHVADTLMQGVTLSSNLNTNLHFDVDNINFKSLVGCLGPHCGSSSRSFFEDLLFDKVKLSDVGFVEAYNNCTGGSEIRDLLCVQSFNGIKVLPPILSESQISGYTTAATVAAMFPPWSAAAGIPFSLNVQYRINGLGVTMDVLNKNQKLIATAFNNALLSIQNGFSATNSALAKIQSVVNSNAQALNSLLQQLFNKFGAISSSLQEILSRLDALEAQVQIDRLINGRLTALNAYVSQQLSDISLVKFGAALAMEKVNECVKSQSPRINFCGNGNHILSLVQNAPYGLLFMHFSYKPISFKTVLVSPGLCISGDVGIAPKQGYFIKHNDHWMFTGSSYYYPEPISDKNVVFMNTCSVNFTKAPLVYLNHSVPKLSDFESELSHWFKNQTSIAPNLTLNLHTINATFLDLYYEMNLIQESIKSLNNSYINLKDIGTYEMYVKWPWYVWLLISFSFIIFLVLLFFICCCTGCGSACFSKCHNCCDEYGGHHDFVIKTSHDD	increases

target: human TMPRSS2 ectodomain harboring the S441A residue substitution and the C379-T447C disulfide bond (UniProt O15393); assay: BLI; details: parent: est. 0.54; read off a plot

Molecule	response [nm]
HKU1 isolate N1 (genotype A) RBD, wildtype, avi-tagged and biotinylated (from UniProt Q5MQD0) E505A	0.37
HKU1 isolate N1 (genotype A) RBD, wildtype, avi-tagged and biotinylated (from UniProt Q5MQD0) H488A	0.17
HKU1 isolate N1 (genotype A) RBD, wildtype, avi-tagged and biotinylated (from UniProt Q5MQD0) Y528A	0.11

target: HKU1 isolate N1 (genotype A) RBD, wildtype, avi-tagged and biotinylated (UniProt Q5MQD0); assay: BLI; details: parent: est. 0.51; read off a plot

Molecule	response [nm]
human TMPRSS2 ectodomain, active (S441), with the C379-T447C disulfide bond (from UniProt O15393) R470A	0.15
human TMPRSS2 ectodomain, active (S441), with the C379-T447C disulfide bond (from UniProt O15393) Y414A	0.11
human TMPRSS2 ectodomain, active (S441), with the C379-T447C disulfide bond (from UniProt O15393) Y469A	0.36

same assay, conditions: read off a plot

Molecule	percent of parent [% WT]
human TMPRSS2 ectodomain, active (S441), with the C379-T447C disulfide bond (from UniProt O15393) A468P	57
human TMPRSS2 ectodomain, active (S441), with the C379-T447C disulfide bond (from UniProt O15393) D417N	7.5
human TMPRSS2 ectodomain, active (S441), with the C379-T447C disulfide bond (from UniProt O15393) K340D	38
human TMPRSS2 ectodomain, active (S441), with the C379-T447C disulfide bond (from UniProt O15393) L419A	2.7
human TMPRSS2 ectodomain, active (S441), with the C379-T447C disulfide bond (from UniProt O15393) L419M	30
human TMPRSS2 ectodomain, active (S441), with the C379-T447C disulfide bond (from UniProt O15393) R409K	36
human TMPRSS2 ectodomain, active (S441), with the C379-T447C disulfide bond (from UniProt O15393) R409T	58
human TMPRSS2 ectodomain, active (S441), with the C379-T447C disulfide bond (from UniProt O15393) R413K	52
human TMPRSS2 ectodomain, active (S441), with the C379-T447C disulfide bond (from UniProt O15393) R413V	64
human TMPRSS2 ectodomain, active (S441), with the C379-T447C disulfide bond (from UniProt O15393) R470K	2.1
human TMPRSS2 ectodomain, active (S441), with the C379-T447C disulfide bond (from UniProt O15393) S412N	77
human TMPRSS2 ectodomain, active (S441), with the C379-T447C disulfide bond (from UniProt O15393) S441A	95
human TMPRSS2 ectodomain, active (S441), with the C379-T447C disulfide bond (from UniProt O15393) S463F	2.3
human TMPRSS2 ectodomain, active (S441), with the C379-T447C disulfide bond (from UniProt O15393) S463T	2.7
human TMPRSS2 ectodomain, active (S441), with the C379-T447C disulfide bond (from UniProt O15393) S463Y	2.3
human TMPRSS2 ectodomain, active (S441), with the C379-T447C disulfide bond (from UniProt O15393) T341S	61
human TMPRSS2 ectodomain, active (S441), with the C379-T447C disulfide bond (from UniProt O15393) V415I	47
human TMPRSS2 ectodomain, active (S441), with the C379-T447C disulfide bond (from UniProt O15393) Y414L	2.2
human TMPRSS2 ectodomain, active (S441), with the C379-T447C disulfide bond (from UniProt O15393) Y414S	14
human TMPRSS2 ectodomain, active (S441), with the C379-T447C disulfide bond (from UniProt O15393) Y469N	5.7
